The test has as its target wild-type GroEL chaperonin (GroEL14) (E. coli) (UniProt P0A6F5). The test is described as follows: SDS-PAGE band intensity + absorption spectrophotometry; purified GroEL14-EGFP population assembled in vivo by coexpression; Coomassie-stained bands of WT GroEL (~60 kDa) and GroEL-EGFP (~90 kDa); absorption at 280 and 489 nm. The following applies: scale: WT subunits per fusion GroEL-EGFP subunit.

For one substance, stoichiometry N results are on record in publication PMC9965216.

As a reminder, the stoichiometry N is a count of units in the complex or per binding partner.

wild-type GroEL chaperonin (GroEL14) (E. coli), sequence (P0A6F5 whole entry, the tested form may be a part): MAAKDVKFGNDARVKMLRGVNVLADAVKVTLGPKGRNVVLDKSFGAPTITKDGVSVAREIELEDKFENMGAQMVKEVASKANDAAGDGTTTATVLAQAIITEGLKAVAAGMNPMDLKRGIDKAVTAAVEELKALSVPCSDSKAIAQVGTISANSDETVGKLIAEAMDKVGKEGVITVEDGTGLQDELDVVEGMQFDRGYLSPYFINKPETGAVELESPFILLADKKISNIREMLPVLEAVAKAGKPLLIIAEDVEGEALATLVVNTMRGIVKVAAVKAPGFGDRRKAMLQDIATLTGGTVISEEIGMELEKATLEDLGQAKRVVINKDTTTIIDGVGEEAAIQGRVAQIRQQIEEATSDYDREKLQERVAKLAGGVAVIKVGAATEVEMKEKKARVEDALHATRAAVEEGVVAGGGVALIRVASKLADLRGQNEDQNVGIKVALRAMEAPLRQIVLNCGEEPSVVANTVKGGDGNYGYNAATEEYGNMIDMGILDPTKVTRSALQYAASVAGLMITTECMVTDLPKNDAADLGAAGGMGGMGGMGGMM

“GroEL-EGFP fusion subunit (from UniProt P0A6F5 1-548; P42212 2-238)”: the stoichiometry N was determined as 12.
